The results in this text go back to US20220401560A1, “PEPTIDE ENCAPSULATING FERRITIN” (Ajinomoto Co., Inc., priority 2019, published 2022).

No end group written: not given here.

One experiment concerns the target T1, ferritin (FTH) (Homo sapiens, UniProt P02794).
T1 construct: made in house; host or cells: Escherichia coli BL21 (DE3), plasmid pET20-FTH
Nature of the experiment: Search for peptides capable of being encapsulated into ferritin by disassembly/reassembly process, LC-MS detection. Conditions: encapsulation into ferritin (FTH); three trials. The procedure: Peptides capable of being encapsulated into ferritin by disassembly/reassembly process were searched. In the disassembly/reassembly process, 1 mL of a 50 mM glycine hydrochloride buffer (pH 2.3) containing FTH at a final concentration of 5 mg/mL and the peptide at a final concentration of 0.5 mM, was left to stand at room temperature for 15 minutes. Next, 310 μL of a 1 M Tris hydrochloride buffer (pH 9.0) was added for neutralization, and left to stand at room temperature for 3 hours. After the standing, 1.2 mL of a 50 mM Tris hydrochloride buffer (pH 8.0) was added, and centrifuged (at 15,000 rpm for one minute). Thereafter, 2.5 mL of its supernatant was injected into a desalting column PD-10 (Sephadex G-25 filled product, GE Healthcare Inc.) equilibrated with a 50 mM Tris hydrochloride buffer (pH 8) for the elusion with 3.0 mL of a 50 mM Tris hydrochloride buffer (pH 8.0) to separate non-encapsulated peptides and ferritin. A whole amount (3.0 mL) of the resulting solution was concentrated to 0.1 mL by centrifugal ultrafiltration using Vivaspin 20-100K (GE Healthcare Inc.). The operation of adding 10 mL of a 50 mM Tris hydrochloride buffer to the concentrated solution and then concentrating was repeated twice to remove peptides that were not removed by PD-10 to obtain 0.1 mL of a sample solution. For the LC-MS analysis, 50 p1 of a 1 M glycine hydrochloride buffer (pH 2.3) was added to 50 μL of the sample solution and then the resulting solution was left to stand at room temperature for 15 minutes. To the solution, 900 μL of ethanol was added. Next, the resulting solution was stirred vigorously and then centrifuged (at 15,000 rpm for five minutes) for collection of the supernatant. The supernatant was analyzed using LCMS-2020 (Shimadzu Corporation) as LC-MS, Inertsil (Registered trademark) as a column, ODS-3, particle diameter of 2 μm and 2.1 mm×50 mm (GL science). Thereafter, 10 μL of the sample injected into the column was eluded at a flow rate of 0.2 mL/min for 10 minutes such that a mixing ratio of a solution A (0.1% formic acid/99.9% acetonitrile) and a solution B (50% water/50% acetonitrile) is from 95:5 to 95:5.
The encapsulation of the peptide into ferritin was studied by comparing in terms of the amount of the peptide detected by LC/MS between the sample prepared by encapsulating the peptide into ferritin at the disassembly/reassembly process and the sample prepared simply by mixing ferritin with the peptide. For example, ClAc-FHC was eluted at a retention time of 0.8 minute. […] However, the peak was not observed for the sample prepared by simply mixing the peptide with ferritin without performing the disassembly/reassembly process (FIG. 12B). FIG. 13 to FIG. 17 illustrate LC-MS results for FTH in which the peptide was encapsulated at the disassembly/reassembly process.

In another experiment the test system is SKBR-3 cell. Nature of the experiment: Cell incorporation test by FACS in SKBR-3 cell. Type of experiment: cell-based, human. The settings on record: 24 hours, FTH 100, 200 and 400 nM, or peptide without FTH encapsulation at the same peptide concentrations. The procedure: A human breast cancer derived SKBR-3 cell (20,000 cell/well, 96-well plate) was added to 100 μL media that were produced by adding the PKC-F encapsulating FTH to evaluation media (Opti-MEM™ (Thermo Fisher Scientific Inc.)+1% non-essential amino acid solution (Thermo Fisher Scientific Inc.)+1% penicillin—streptomycin (Nacalai Tesque, Inc.)) at final concentrations of 100 nM (PKC-F concentration 0.86 μM), 200 nM (PKC-F concentration 1.72 μM) and 400 nM (PKC-F concentration 3.44 μM), respectively, and then cultured at 37° C. The transferrin receptor TfR was expressed in the SKBR-3 cell. […] After that 100 μL of an Opti-MEM™ medium was added, and the cells were transferred to a plate for fluorescence-activated cell sorting (FACS), and then subjected to centrifugal separation at 400×g for 5 minutes. The cells for each were suspended in a FACS buffer (Attune™ Focusing Fluid, Thermo Fisher Scientific Inc.), and analyzed by FACS (Attune NxT, Thermo Fisher Scientific Inc.).
The cell incorporation of the obtained FAM-SV40 encapsulating FTH was evaluated. […]
After 100 μL of the Opti-MEM™ medium was added, the cells were transferred to the plate for fluorescence-activated cell sorting (FACS), and then subjected to centrifugal separation at 400×g for 5 minutes. […]
(In flow cytometry, cells or beads pass a laser one at a time.)

T1 sequence (P02794 whole entry): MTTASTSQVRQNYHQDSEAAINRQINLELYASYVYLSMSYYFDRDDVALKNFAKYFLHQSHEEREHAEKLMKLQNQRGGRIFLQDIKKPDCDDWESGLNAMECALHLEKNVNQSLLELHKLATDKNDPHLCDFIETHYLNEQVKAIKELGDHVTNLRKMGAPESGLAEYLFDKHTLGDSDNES

On to “5(6)-FAM-CGGPKKKRKVG (SEQ ID NO: 10) ({5(6)‑FAM}-CGGPKKKRKVG) [FAM-SV40, fluorescent dye-modified peptide, linear]”, for which, in the experiment with ferritin (FTH), the encapsulation entry is “A (“A” represents peptides with three times of confirmation of encapsulation.)”. Moreover, in the experiment on SKBR-3 cell, the “fluorescence intensity of cells by FACS” value is listed as “not observed”.
